Data taken from publication PMC8216288.

Legend:
[1] = target: GST-pICln S193, 195, 197D (phospho-mimicking aspartate mutant) (human) (UniProt P54105); assay: SPR; Biacore T200; GST-pICln immobilised by amine coupling on CM5 chip (400 RU), SmG as analyte; multi-cycle, 20°C, 10 μl/min; 300 mM NaCl, 50 mM Tris/HCl pH 7.5, 1 mM EDTA, 1 mM EGTA; steady-state fit; n = 3
[2] = test system: Sm core (heptameric ring SmB/D1/D2/D3/E/F/G) assembled from GFP-pICln immunoprecipitate, detected by Y12 supershift; assay: EMSA with Y12 supershift; conditions: S100 assembly: 50 ug extract, 2 ug tRNA, 5 mM ATP, 1 ul RNAsin in 20 ul PBS, 35 C, 45 min, native RNA gel, pH not stated, GFP-pICln IP with or without ATP and …

Chain of GST-pICln S193, 195, 197D (phospho-mimicking aspartate mutant) (human) (P54105 other isoform, or with tags, fused parts or gaps mutant): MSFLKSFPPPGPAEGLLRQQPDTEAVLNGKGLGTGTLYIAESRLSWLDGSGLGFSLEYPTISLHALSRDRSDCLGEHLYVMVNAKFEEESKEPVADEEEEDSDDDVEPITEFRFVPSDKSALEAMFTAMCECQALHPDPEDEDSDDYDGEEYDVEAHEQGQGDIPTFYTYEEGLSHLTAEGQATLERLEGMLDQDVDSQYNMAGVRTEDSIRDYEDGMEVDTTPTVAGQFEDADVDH

Substance	Kd [1]	binding signal (fold vs IP alone) ([2]; +ATP + ULK2, stated as no effect)	binding signal (fold vs IP alone) ([2]; +ATP + active ULK1)	binding signal (fold vs IP alone) ([2]; +ATP)	binding signal (fold (reference)) [2]
SmG purified from E. coli (SPR analyte) (from UniProt P62308 1-76) (natural protein)	84.7 µM				
U1 snRNA		1.3	2.6	1.4	1
